PMC8134030 (Biochemistry and Biophysics Reports, 2021)

T1: MBP:Ncd^FL (Drosophila, UniProt P20480 1-700)
T1 sequence (looked up): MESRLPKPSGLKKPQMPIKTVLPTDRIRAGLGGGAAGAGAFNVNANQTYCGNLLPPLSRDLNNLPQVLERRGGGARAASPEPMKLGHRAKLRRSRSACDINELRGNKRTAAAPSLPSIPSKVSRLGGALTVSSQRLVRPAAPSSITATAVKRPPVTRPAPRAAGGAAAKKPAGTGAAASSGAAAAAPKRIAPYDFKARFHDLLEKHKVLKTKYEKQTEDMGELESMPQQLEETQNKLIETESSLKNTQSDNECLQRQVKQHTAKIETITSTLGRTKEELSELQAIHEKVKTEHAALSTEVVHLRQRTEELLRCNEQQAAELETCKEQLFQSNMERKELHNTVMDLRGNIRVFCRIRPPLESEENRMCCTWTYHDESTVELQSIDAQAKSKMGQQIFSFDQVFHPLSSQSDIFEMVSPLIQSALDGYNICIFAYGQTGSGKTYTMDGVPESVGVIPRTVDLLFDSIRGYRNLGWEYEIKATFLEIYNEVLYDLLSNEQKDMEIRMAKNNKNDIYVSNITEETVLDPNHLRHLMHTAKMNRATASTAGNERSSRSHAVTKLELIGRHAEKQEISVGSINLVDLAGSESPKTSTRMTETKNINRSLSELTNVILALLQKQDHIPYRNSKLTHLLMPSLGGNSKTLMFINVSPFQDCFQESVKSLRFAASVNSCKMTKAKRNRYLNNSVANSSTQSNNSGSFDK

T2: MBP:Ncd^CTm (Drosophila, UniProt P20480 333-700)
T2 sequence (looked up): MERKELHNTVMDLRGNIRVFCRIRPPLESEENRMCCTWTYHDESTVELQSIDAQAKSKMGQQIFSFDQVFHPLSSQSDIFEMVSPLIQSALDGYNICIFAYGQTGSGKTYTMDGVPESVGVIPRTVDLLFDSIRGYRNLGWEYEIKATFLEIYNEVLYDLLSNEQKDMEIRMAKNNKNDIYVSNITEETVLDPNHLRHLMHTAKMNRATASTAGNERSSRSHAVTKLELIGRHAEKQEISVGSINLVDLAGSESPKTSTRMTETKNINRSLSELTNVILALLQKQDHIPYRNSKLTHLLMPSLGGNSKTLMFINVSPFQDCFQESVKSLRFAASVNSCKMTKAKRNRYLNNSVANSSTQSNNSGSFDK

T3: MBP:Ncd^CTm3A (Drosophila, UniProt P20480 333-700, H619A | R623A | H629A)
T3 sequence (looked up): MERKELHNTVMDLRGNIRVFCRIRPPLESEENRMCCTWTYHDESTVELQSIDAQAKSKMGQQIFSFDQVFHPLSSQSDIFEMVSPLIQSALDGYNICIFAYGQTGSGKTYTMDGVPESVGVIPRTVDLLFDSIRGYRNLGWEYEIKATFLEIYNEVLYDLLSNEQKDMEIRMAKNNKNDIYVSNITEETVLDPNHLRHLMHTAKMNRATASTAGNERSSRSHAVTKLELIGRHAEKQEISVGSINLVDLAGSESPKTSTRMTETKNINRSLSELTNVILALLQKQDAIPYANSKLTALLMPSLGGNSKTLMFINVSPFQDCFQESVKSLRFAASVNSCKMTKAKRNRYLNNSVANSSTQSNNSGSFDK


Key:
Assay in all cases: pull-down
MBP:Ncd^FL = target: T1, MBP:Ncd^FL
MBP:Ncd^CTm = target: T2, MBP:Ncd^CTm
MBP:Ncd^CTm3A = target: T3, MBP:Ncd^CTm3A

binding result (MBP:Ncd^FL)	Kd (MBP:Ncd^CTm) [nM]	fold reduction in binding affinity against WT (MBP:Ncd^CTm3A) [fold]	Binder
binds	–	–	Ncd^CTm, soluble untagged prey (domain or fragment, Drosophila, UniProt P20480 333-700, looked up) MERKELHNTVMDLRGNIRVFCRIRPPLESEENRMCCTWTYHDESTVELQSIDAQAKSKMGQQIFSFDQVFHPLSSQSDIFEMVSPLIQSALDGYNICIFAYGQTGSGKTYTMDGVPESVGVIPRTVDLLFDSIRGYRNLGWEYEIKATFLEIYNEVLYDLLSNEQKDMEIRMAKNNKNDIYVSNITEETVLDPNHLRHLMHTAKMNRATASTAGNERSSRSHAVTKLELIGRHAEKQEISVGSINLVDLAGSESPKTSTRMTETKNINRSLSELTNVILALLQKQDHIPYRNSKLTHLLMPSLGGNSKTLMFINVSPFQDCFQESVKSLRFAASVNSCKMTKAKRNRYLNNSVANSSTQSNNSGSFDK
–	~2000	~10	Ncd^nMBD, soluble untagged prey (domain or fragment, Drosophila, UniProt P20480 1-204, looked up) MESRLPKPSGLKKPQMPIKTVLPTDRIRAGLGGGAAGAGAFNVNANQTYCGNLLPPLSRDLNNLPQVLERRGGGARAASPEPMKLGHRAKLRRSRSACDINELRGNKRTAAAPSLPSIPSKVSRLGGALTVSSQRLVRPAAPSSITATAVKRPPVTRPAPRAAGGAAAKKPAGTGAAASSGAAAAAPKRIAPYDFKARFHDLLE
